Results as given in the Human Domainome abundance scans (Beltran et al. 2025).
± gives the uncertainty stated by the source.

B1: Glucocorticoid receptor, residues 419 to 494; numbered along this chain, P04150 (parent)
chain: KLCLVCSDEASGCHYGVLTCGSCKVFFKRAVEGQHNYLCAGRNDCIIDKIRRKNCPACRYRKCLQAGMNLEARKTK

Variants of: B1
Experiment: abundance fitness (aPCA) (normalised: wild type 0, dead -1); higher = more abundant; growth selection in yeast, the domain comes from the species named
Settings: Homo sapiens

**Q.** For KLCLVCSDEASGCHYGVLTCGSCKVFFKRAVLGQHNYLCAGRNDCIIDKIRRKNCPACRYRKCLQAGMNLEARKTK [E32L], which abundance fitness is on record?
**A.** -0.073 ± 0.032

**Q.** For KLCLVCSDEASGCHYGVLTCGSCKVFFKRAVAGQHNYLCAGRNDCIIDKIRRKNCPACRYRKCLQAGMNLEARKTK [E32A], which abundance fitness is on record?
**A.** -0.166 ± 0.041

**Q.** With KLCLVCSDEASGCHYGVLTCGSCKVFFKRAVDGQHNYLCAGRNDCIIDKIRRKNCPACRYRKCLQAGMNLEARKTK [E32D] as the variant, how does the abundance fitness read?
**A.** -0.015 ± 0.07

**Q.** Which abundance fitness does the source give for KLCLVCSDEASGCHYGVLTCGSCKVFFKRAVFGQHNYLCAGRNDCIIDKIRRKNCPACRYRKCLQAGMNLEARKTK [E32F] here?
**A.** -0.192 ± 0.074

**Q.** Which abundance fitness does the source give for KLCLVCSDEASGCHYGVLTCGSCKVFFKRAIEGQHNYLCAGRNDCIIDKIRRKNCPACRYRKCLQAGMNLEARKTK [V31I] here?
**A.** 0.037 ± 0.051

**Q.** Which abundance fitness does the source give for KLCLVCSDEASGCHYGVLTCGSCKVFFKRAKEGQHNYLCAGRNDCIIDKIRRKNCPACRYRKCLQAGMNLEARKTK [V31K] here?
**A.** -0.078 ± 0.056

**Q.** With KLCLVCSDEASGCHYGVLTCGSCKVFFKRAFEGQHNYLCAGRNDCIIDKIRRKNCPACRYRKCLQAGMNLEARKTK [V31F] as the variant, how does the abundance fitness read?
**A.** -0.007 ± 0.058

**Q.** With KLCLVCSDEASGCHYGVLTCGSCKVFFKRAWEGQHNYLCAGRNDCIIDKIRRKNCPACRYRKCLQAGMNLEARKTK [V31W] as the variant, how does the abundance fitness read?
**A.** -0.07 ± 0.044

**Q.** Which abundance fitness does the source give for KLCLVCSDEASGCHYGVLTCGSCKVFFKRANEGQHNYLCAGRNDCIIDKIRRKNCPACRYRKCLQAGMNLEARKTK [V31N] here?
**A.** -0.104 ± 0.082

**Q.** Which abundance fitness does the source give for KLCLVCSDEASGCHYGVLTCGSCKVFFKRAREGQHNYLCAGRNDCIIDKIRRKNCPACRYRKCLQAGMNLEARKTK [V31R] here?
**A.** -0.007 ± 0.028

**Q.** With KLCLVCSDEASGCHYGVLTCGSCKVFFKRACEGQHNYLCAGRNDCIIDKIRRKNCPACRYRKCLQAGMNLEARKTK [V31C] as the variant, how does the abundance fitness read?
**A.** -0.016 ± 0.054

**Q.** For KLCLVCSDEASGCHYGVLTCGSCKVFFKRAEEGQHNYLCAGRNDCIIDKIRRKNCPACRYRKCLQAGMNLEARKTK [V31E], which abundance fitness is on record?
**A.** -0.052 ± 0.046

**Q.** Which abundance fitness does the source give for KLCLVCSDEASGCHYGVLTCGSCKVFFKRAMEGQHNYLCAGRNDCIIDKIRRKNCPACRYRKCLQAGMNLEARKTK [V31M] here?
**A.** -0.042 ± 0.049

**Q.** Which abundance fitness does the source give for KLCLVCSDEASGCHYGVLTCGSCKVFFKRAAEGQHNYLCAGRNDCIIDKIRRKNCPACRYRKCLQAGMNLEARKTK [V31A] here?
**A.** -0.031 ± 0.039

**Q.** With KLCLVCSDEASGCHYGVLTCGSCKVFFKRAPEGQHNYLCAGRNDCIIDKIRRKNCPACRYRKCLQAGMNLEARKTK [V31P] as the variant, how does the abundance fitness read?
**A.** -0.567 ± 0.1

**Q.** For KLCLVCSDEASGCHYGVLTCGSCKVFFKRALEGQHNYLCAGRNDCIIDKIRRKNCPACRYRKCLQAGMNLEARKTK [V31L], which abundance fitness is on record?
**A.** -0.036 ± 0.033

**Q.** Which abundance fitness does the source give for KLCLVCSDEASGCHYGVLTCGSCKVFFKRAGEGQHNYLCAGRNDCIIDKIRRKNCPACRYRKCLQAGMNLEARKTK [V31G] here?
**A.** -0.036 ± 0.035

**Q.** For KLCLVCSDEASGCHYGVLTCGSCKVFFKRADEGQHNYLCAGRNDCIIDKIRRKNCPACRYRKCLQAGMNLEARKTK [V31D], which abundance fitness is on record?
**A.** -0.219 ± 0.084

**Q.** For KLCLVCSDEASGCHYGVLTCGSCKVFFKRAYEGQHNYLCAGRNDCIIDKIRRKNCPACRYRKCLQAGMNLEARKTK [V31Y], which abundance fitness is on record?
**A.** -0.034 ± 0.081

**Q.** With KLCLVCSDEASGCHYGVLTCGSCKVFFKRAQEGQHNYLCAGRNDCIIDKIRRKNCPACRYRKCLQAGMNLEARKTK [V31Q] as the variant, how does the abundance fitness read?
**A.** -0.017 ± 0.048

**Q.** Which abundance fitness does the source give for KLCLVCSDEASGCHYGVLTCGSCKVFFKRASEGQHNYLCAGRNDCIIDKIRRKNCPACRYRKCLQAGMNLEARKTK [V31S] here?
**A.** 0.037 ± 0.037

**Q.** For KLCLVCSDEASGCHYGVLTCGSCKVFFKRAVEHQHNYLCAGRNDCIIDKIRRKNCPACRYRKCLQAGMNLEARKTK [G33H], which abundance fitness is on record?
**A.** -0.006 ± 0.067

**Q.** With KLCLVCSDEASGCHYGVLTCGSCKVFFKRAVEMQHNYLCAGRNDCIIDKIRRKNCPACRYRKCLQAGMNLEARKTK [G33M] as the variant, how does the abundance fitness read?
**A.** -0.052 ± 0.049

**Q.** With KLCLVCSDEASGCHYGVLTCGSCKVFFKRAVEDQHNYLCAGRNDCIIDKIRRKNCPACRYRKCLQAGMNLEARKTK [G33D] as the variant, how does the abundance fitness read?
**A.** 0.05 ± 0.066

**Q.** For KLCLVCSDEASGCHYGVLTCGSCKVFFKRAVEPQHNYLCAGRNDCIIDKIRRKNCPACRYRKCLQAGMNLEARKTK [G33P], which abundance fitness is on record?
**A.** -0.265 ± 0.059

**Q.** With KLCLVCSDEASGCHYGVLTCGSCKVFFKRAVERQHNYLCAGRNDCIIDKIRRKNCPACRYRKCLQAGMNLEARKTK [G33R] as the variant, how does the abundance fitness read?
**A.** -0.048 ± 0.03

**Q.** For KLCLVCSDEASGCHYGVLTCGSCKVFFKRAVEKQHNYLCAGRNDCIIDKIRRKNCPACRYRKCLQAGMNLEARKTK [G33K], which abundance fitness is on record?
**A.** 0.034 ± 0.06

**Q.** For KLCLVCSDEASGCHYGVLTCGSCKVFFKRAVENQHNYLCAGRNDCIIDKIRRKNCPACRYRKCLQAGMNLEARKTK [G33N], which abundance fitness is on record?
**A.** 0.115 ± 0.1

**Q.** For KLCLVCSDEASGCHYGVLTCGSCKVFFKRAVECQHNYLCAGRNDCIIDKIRRKNCPACRYRKCLQAGMNLEARKTK [G33C], which abundance fitness is on record?
**A.** -0.176 ± 0.065

**Q.** Which abundance fitness does the source give for KLCLVCSDEASGCHYGVLTCGSCKVFFKRAVESQHNYLCAGRNDCIIDKIRRKNCPACRYRKCLQAGMNLEARKTK [G33S] here?
**A.** -0.045 ± 0.04

**Q.** With KLCLVCSDEASGCHYGVLTCGSCKVFFKRAVELQHNYLCAGRNDCIIDKIRRKNCPACRYRKCLQAGMNLEARKTK [G33L] as the variant, how does the abundance fitness read?
**A.** -0.093 ± 0.035

**Q.** Which abundance fitness does the source give for KLCLVCSDEASGCHYGVLTCGSCKVFFKRAVEIQHNYLCAGRNDCIIDKIRRKNCPACRYRKCLQAGMNLEARKTK [G33I] here?
**A.** -0.121 ± 0.095

**Q.** With KLCLVCSDEASGCHYGVLTCGSCKVFFKRAVEAQHNYLCAGRNDCIIDKIRRKNCPACRYRKCLQAGMNLEARKTK [G33A] as the variant, how does the abundance fitness read?
**A.** -0.063 ± 0.037

**Q.** Which abundance fitness does the source give for KLCLVCSDEASGCHYGVLTCGSCKVFFKRAVEEQHNYLCAGRNDCIIDKIRRKNCPACRYRKCLQAGMNLEARKTK [G33E] here?
**A.** -0.039 ± 0.052

**Q.** For KLCLVCSDEASGCHYGVLTCGSCKVFFKRAVEQQHNYLCAGRNDCIIDKIRRKNCPACRYRKCLQAGMNLEARKTK [G33Q], which abundance fitness is on record?
**A.** -0.017 ± 0.048

**Q.** Which abundance fitness does the source give for KLCLVCSDEASGCHYGVLTCGSCKVFFKRAVEFQHNYLCAGRNDCIIDKIRRKNCPACRYRKCLQAGMNLEARKTK [G33F] here?
**A.** -0.052 ± 0.083
